Reference: patent US7345160B2, “Aequorin and obelin mutants with differing wavelengths and bioluminescence” (University of Kentucky Research Foundation, priority 2004, dated 2008)
“And” between values parts separate entries of the source, which are not always exact repeats. Equal values may be shown once. Read-outs that look alike come from different tables or passages of the source.

How the values were obtained:
[1] = general statement, cited from earlier work
[2] = in solution at 4° C. for over a month; cited from earlier work
[3] = Emission spectra (emission maximum) of purified aequorin mutants with coelenterazine analogues; format: physicochemical
Source text: In order to detect the inventive aequorin mutants, the use of an instrument capable of detecting flash-type bioluminescence over a wide range of wavelengths is envisaged. For example, a fiber optic sensor collects the bioluminescence signal emitted by the aequorin and transmits it to a grating that directs the beam of light to onto an optical array detector. In one embodiment, the system to acquire the spectra from the flash kinetics of aequorin and obelin luminescence consists of a microtiter plate reader. The optical path of the instrument is replaced with a high collecting efficiency fiber optic bundle. This fiberoptic bundle carries the emitted light into an Oriel Instruments Fixed Imaging Compact Spectrograph, the dispersed light is then fed into an ANDOR cooled CCD detector. See for example the SpectroSystem By Sciencewares, Inc (East Falmouth, Mass.).
Cysteine free aequorin (Mutant S), Y132I Mutant S aequorin, Aeq5 (Mutant S with a cysteine at position 5), and wild type Aequorin were purified and multiple spectra taken and averaged (See FIG. 1). […] Mutant S had emission maximums ranging from 448 nm to 491 nm. Y132I Mutant S has emission maximums ranging from 453 nm to 487 nm. Aequorin 5 had emission maximums ranging from 466 nm to 491 nm. The greatest spread in emission maximum thus far has been between MutS/CTZ i and MutS/CTZ hcp (448 nm, 491 nm, respectively (43 nm range)). […] The greatest spread in emission maxima wavelengths so far with the same coelenterazine is CTZ hcp with Aeq5 (476 nm) and MutS (448 nm) being 28 nm. Also, the maximum spread with the same CTZ's and different aequorins is 19 nm for i, ip, and f.
Mutant S, Mutant S Y132I and Aeq 5 final emission spectrums were the result of the average of three trials. Wild type aequorins final spectrum was the result of two trials. All mutants, except Aeq5, were purified to >95% purity using SDS-PAGE and silver staining. All coelenterazine analogues were diluted to 100 micrograms/ML methanol. Solvent composition, coelenterazine concentration, temperature, and incubation time, were the same for all trials except with N coelenterazine, which required a higher concentration of aequorin than the other coelenterazines to show activity. Concentrations of the different mutants were not identical. Half life determination of Y132I Mut S with coelenterazines i, ip, h, hcp, cp, fcp, f, and native were 23, 0.9, 0.4, 0.2, 0.6, 0.7, 2.6, and 1.2 seconds, respectively.

[4] = Emission spectra of obelin and obelin mutants with coelenterazine analogues; format: physicochemical; settings: all coelenterazine analogues
Source text: Obelin mutants C75S/C51/S, C75S/C67, C158S, C151S, and wild type obelin were purified and multiple spectra taken and averaged (See FIG. 20).

B1: wild type aequorin: native recombinant aequorin encoded by SEQ ID NO: 1, purchased commercially (Aqualite from Molecular Probes) (protein, listed as Aequorea victoria)
chain: VKLTSDFDNPRWIGRHKHMFNFLDVNHNGKISLDEMVYKASDIVINNLGATPEQAKRHKDAVEAFFGGAGMKYGVETDWPAYIEGWKKLATDELEKYAKNEPTLIRIWGDALFDIVDKDQNGAITLDEWKAYTKAAGIIQSSEDCEETFRVCDIDESGQLDVDEMTRQHLGFWYTMDPACEKLYGGAVP
For B1, the “emission wavelength of aequorin” value [1] is given as 469-472 nm, the “emission wavelength of aequorin” value ([1]; listed as aequorin) is given as 469 nm and the “emission wavelength of aequorin” value ([1]; listed as recombinant aequorin) is given as 469 nm. For the same molecule, the “original activity retained on storage” value [2] was 85%, the emission maximum ([3]; over all coelenterazine analogues (i, ip, h, hcp, cp, fcp, f, n, native)) was 472 nm and the emission maximum ([3]; over all coelenterazine analogues (i, ip, h, hcp, cp, fcp, f, n, native), listed as Wild type aequorin) was “the same emission maxima for all coelenterazines analogues”. The emission maximum ([3]; over all coelenterazine analogues (i, ip, h, hcp, cp, fcp, f, n, native), listed as native recombinant aequorin) was 472 nm.

B2: Mutant S: aequorin mutant where the three cysteine residues are replaced with serine (positions 145, 152, 180); SEQ ID NO: 4 (protein, listed as Aequorea victoria)
chain: VKLTSDFDNPRWIGRHKHMFNFLDVNHNGKISLDEMVYKASDIVINNLGATPEQAKRHKDAVEAFFGGAGMKYGVETDWPAYIEGWKKLATDELEKYAKNEPTLIRIWGDALFDIVDKDQNGAITLDEWKAYTKAAGIIQSSEDSEETFRVSDIDESGQLDVDEMTRQHLGFWYTMDPASEKLYGGAVP
In the case of B2, the “spread in emission maximum between CTZ i and CTZ hcp” value ([3]; same protein, CTZ i vs CTZ hcp) is reported as 43 nm, the emission maximum ([3]; with CTZ hcp, listed as MutS) is reported as 491 nm and 448 nm and the emission maximum ([3]; with CTZ i) is reported as 448 nm.

B3: Wild type obelin: bioluminescent protein from the marine hydroid Obelia longissima; SEQ ID NO: 6 (protein, listed as Obelia longissima)
chain: MSSKYAVKLKTDFDNPRWIKRHKHMFDFLDINGNGKITLDEIVSKASDDICAKLEATPEQTKRHQVCVEAFFRGCGMEYGKEIAFPQFLDGWKQLATSELKKWARNEPTLIREWGDAVFDIFDKDGSGTITLDEWKAYGKISGISPSQEDCEATFRHCDLDNSGDLDVDEMTRQHLGFWYTLDPEADGLYGNGVP
For B3, the emission maxima [4] was 469 nm.
